Where a SMILES comes first, the peptide text is derived from it. Where no end group is shown, it is not given here.
How the values were obtained:
Assay type in all cases: physicochemical
[1] = Test Example 2: solubility of SEQ ID NO: 1 in glycine-HCl buffers; conditions: for result (solubility): 270 mM trehalose, 24 hours
Protocol: The solubility of the peptide drug substance of SEQ ID NO: 1 (purity 95 w/w % or more, PPL) was examined as described below. First, 10 to 500 mM glycine-HCl buffers containing 270 mM trehalose from pH 2.5 to 3.5 were prepared, and the peptide drug substance was added to 2 mL of each buffer so that the peptide concentration was 10 to 25 mg/mL.

[2] = Example 1: peptide cocktail preparation standing at room temperature for 6 hours; conditions: for HPLC analysis: peptide concentration: in peptide cocktail preparation of Example 1 (with GM-CSF); for HPLC analysis: % vs T0: in peptide cocktail preparation of Example 1, T = 6 hours
Protocol: Using the lyophilized peptide preparations produced in Preparation Example 1, a peptide cocktail preparation to be administered was prepared as follows. First, 1 mL of purified water was added to each lyophilized peptide preparation, and the lyophilized product in the vial was dissolved to prepare a peptide solution. All the peptide solutions were collected from the respective vials and transferred to a different vial to provide a peptide cocktail preparation. Also, a GM-CSF lyophilized preparation (product name: Lukine ([…]), Sanofi) was dissolved in 1 mL of purified water and 0.6 mL of the solution thus obtained was added as an adjuvant to 1.4 mL of the peptide cocktail preparation to provide a peptide cocktail preparation to be administered. Then, the peptide cocktail preparation thus obtained was allowed to stand at room temperature for 6 hours, and evaluated for changes in peptide concentration, pH (25° C.), and osmotic pressure compared with those before standing.

[3] = Test Example 1: examination of peptide solubility in citrate/phosphate buffers; conditions: for result (whether peptide drug substance was dissolved): room temperature 24 hours
Protocol: The solubility of a peptide drug substance (purity 95 w/w % or more, PPL) was examined for the peptides Asn-Val-Leu-His-Phe-Phe-Asn-Ala-Pro-Leu (SEQ ID NO: 1), Ala-Ser-Leu-Asp-Ser-Asp-Pro-Trp-Val (SEQ ID NO: 2), Lys-Leu-Lys-His-Tyr-Gly-Pro-Gly-Trp-Val (SEQ ID NO: 3), and Leu-Leu-Gln-Ala-Glu-Ala-Pro-Arg-Leu (SEQ ID NO: 4), respectively. First, 10 mM citrate buffers (Citrate) or phosphate buffers (Phosphate) containing 270 mM trehalose from pH 3.0 to pH 8.0 were prepared and the peptide drug substance was added to each buffer so as to provide a predetermined peptide concentration. The mixture was stirred and allowed to stand at room temperature for 24 hours to evaluate whether the peptide drug substance was dissolved.

[4] = Test Example 3: peptide stability in solution (HPLC); conditions: for % difference vs T = 0 / Conc.: buffers as Table 3; for T0 Conc.: time of preparation, buffers: SEQ1 pH 3.5 50 mM Gly-HCl + 200 mM trehalose, SEQ2 pH 4.0, SEQ3 pH 7.0, SEQ4 pH 6.0 in 10 mM citrate + 270 mM trehalose
Protocol: Based on the results of Test Example 1 and Test Example 2, the stability of the peptides was examined. First, peptide drug substances (purity 95 w/w % or more, PPL) were dissolved in the buffers shown in Table 3, respectively, to prepare peptide solutions of the peptides of SEQ ID NOs: 1 to 4 at the final concentration of 10 mg/mL. […] In the evaluation, samples were collected at the time of preparation of the peptide solution, after 24 hours, and after 48 hours, and stored at −20° C. The peptide concentration was measured by HPLC after all the samples were collected, and compared with the peptide concentration at the time of preparation (T=0).

[5] = Preparation Example 2: stability of lyophilized peptide cocktail preparation; conditions: T = 1 (1 month at 25° C., humidity 60%)
Protocol: To produce a lyophilized peptide cocktail preparation and confirm the stability of the preparation, 500 mL of a peptide cocktail preparation was prepared in the same manner as in Example 1, and then the preparation was aseptically filled to a glass vial at 1 mL per vial and lyophilized to provide a lyophilized peptide cocktail preparation. Then, immediately after the preparation (T=0) or after storage at room temperature (25° C., humidity 60%) for 1 month from the preparation (T=1), 1 mL of purified water was added to the lyophilized preparation to dissolve the peptides. Appearance, solubility, peptide stability, and pH were evaluated.

| Molecule | HPLC analysis: peptide concentration ([2]; T = 0 hour) | HPLC analysis: peptide concentration ([2]; T = 6 hours, room temperature) [mg/mL] | HPLC analysis: % vs T0 ([2]; room temperature) [%] | % difference vs T = 0 ([4]; T = 24 h, 25° C./60% RH) [%] | Conc. ([4]; T = 24 h, 25° C./60% RH) [mg/mL] | % difference vs T = 0 ([4]; T = 24 h, 40° C./75% RH) [%] | Conc. ([4]; T = 24 h, 40° C./75% RH) [mg/mL] | % difference vs T = 0 ([4]; T = 48 h, 25° C./60% RH) [%] | Conc. ([4]; T = 48 h, 25° C./60% RH) [mg/mL] | % difference vs T = 0 ([4]; T = 48 h, 40° C./75% RH) [%] | Conc. ([4]; T = 48 h, 40° C./75% RH) [mg/mL] | T0 Conc. [4] [mg/mL] | change in peptide amount % vs T = 0 (100%) (HPLC analysis) [5] | also measured |
| --- | --- | --- | --- | --- | --- | --- | --- | --- | --- | --- | --- | --- | --- | --- |
| CC(C)C[C@H](NC(=O)[C@@H]1CCCN1C(=O)[C@H](C)NC(=O)[C@H](CC(N)=O)NC(=O)[C@H](Cc1ccccc1)NC(=O)[C@H](Cc1ccccc1)NC(=O)[C@H](Cc1c[nH]cn1)NC(=O)[C@H](CC(C)C)NC(=O)[C@@H](NC(=O)[C@@H](N)CC(N)=O)C(C)C)C(=O)O [SEQ ID NO: 1, Asn-Val-Leu-His-Phe-Phe-Asn-Ala-Pro-Leu] (H-NVLHFFNAPL-OH; N-terminus and C-terminus assumed) |  |  |  |  |  |  |  |  |  |  |  |  |  | result (solubility) ([1]; glycine-HCl buffer pH 2.5, glycine 10 mM (0.75 mg/mL), final conc. of peptide 20 mg/mL, mass ratio peptide/glycine 26.67): dissolved; result (solubility) ([1]; glycine-HCl buffer pH 3, glycine 10 mM (0.75 mg/mL), final conc. of peptide 20 mg/mL, mass ratio 26.67): dissolved; result (solubility) ([1]; glycine-HCl buffer pH 3.5, glycine 10 mM (0.75 mg/mL), final conc. of peptide 20 mg/mL, mass ratio 26.67): dissolved; result (solubility) ([1]; glycine-HCl buffer pH 3.5, glycine 50 mM (3.75 mg/mL), final conc. of peptide 10 mg/mL, mass ratio 2.67): dissolved; result (solubility) ([1]; glycine-HCl buffer pH 3.5, glycine 50 mM (3.75 mg/mL), final conc. of peptide 25 mg/mL, mass ratio 6.67): white turbid; result (solubility) ([1]; glycine-HCl buffer pH 3.5, glycine 100 mM (7.5 mg/mL), final conc. of peptide 10 mg/mL, mass ratio 1.33): dissolved; result (solubility) ([1]; glycine-HCl buffer pH 3.5, glycine 100 mM (7.5 mg/mL), final conc. of peptide 25 mg/mL, mass ratio 3.33): white turbid; result (solubility) ([1]; glycine-HCl buffer pH 3.5, glycine 200 mM (15 mg/mL), final conc. of peptide 10 mg/mL, mass ratio 0.67): dissolved; result (solubility) ([1]; glycine-HCl buffer pH 3.5, glycine 300 mM (22.5 mg/mL), final conc. of peptide 10 mg/mL, mass ratio 0.44): dissolved; result (solubility) ([1]; glycine-HCl buffer pH 3.5, glycine 500 mM (37.5 mg/mL), final conc. of peptide 25 mg/mL, mass ratio 0.67): white turbid; solubility (summary of Table 2) ([1]; peptide concentration of 25 mg/mL, even when glycine concentration was 500 mM): could not be dissolved; stability / precipitation in the cocktail preparation ([2]; pH 4.9): stable without precipitation; solubility (summary of Table 1) ([3]; any of the conditions (pH 3.0 to 8.0), final concentration of 20 mg/mL): could not be dissolved |
| Ala-Ser-Leu-Asp-Ser-Asp-Pro-Trp-Val (ASLDSDPWV) [SEQ ID NO: 2] | SEQ ID NO: 2: 2.7 mg/mL | 2.8 | 107.0 | 0 | 10.85 | −6 | 10.24 | −5 | 10.37 | −20 | 8.76 | 10.89 | SEQ ID NO: 2: 100.4% | degraded ([4]; stored at 75% humidity for 48 hours): 20%; result (whether peptide drug substance was dissolved) ([3]; 10 mM Citrate pH 3.0, 270 mM trehalose, final conc. 66.67 mg/mL): dissolved; result (whether peptide drug substance was dissolved) ([3]; 10 mM Citrate pH 3.5, 270 mM trehalose, final conc. 66.67 mg/mL): dissolved; result (whether peptide drug substance was dissolved) ([3]; 10 mM Citrate pH 4.0, 270 mM trehalose, final conc. 100 mg/mL): dissolved; result (whether peptide drug substance was dissolved) ([3]; 10 mM Citrate pH 5.0, 270 mM trehalose, final conc. 100 mg/mL): dissolved; result (whether peptide drug substance was dissolved) ([3]; 10 mM Citrate pH 6.0, 270 mM trehalose, final conc. 100 mg/mL): dissolved; result (whether peptide drug substance was dissolved) ([3]; 10 mM Phosphate pH 7.0, 270 mM trehalose, final conc. 100 mg/mL): dissolved; result (whether peptide drug substance was dissolved) ([3]; 10 mM Phosphate pH 7.5, 270 mM trehalose, final conc. 100 mg/mL): dissolved; result (whether peptide drug substance was dissolved) ([3]; 10 mM Phosphate pH 8.0, 270 mM trehalose, final conc. 100 mg/mL): dissolved |
| KLKHYGPGWV [SEQ ID NO: 3] | SEQ ID NO: 3: 2.5 mg/mL | 2.7 | 107.7 | 2 | 11.42 | 4 | 11.70 | 4 | 11.63 | 4 | 11.74 | 11.23 | SEQ ID NO: 3: 104.5% | result (whether peptide drug substance was dissolved) ([3]; 10 mM Citrate pH 3.0, 270 mM trehalose, final conc. 200 mg/mL): dissolved; result (whether peptide drug substance was dissolved) ([3]; 10 mM Citrate pH 3.5, 270 mM trehalose, final conc. 200 mg/mL): dissolved; result (whether peptide drug substance was dissolved) ([3]; 10 mM Citrate pH 4.0, 270 mM trehalose, final conc. 200 mg/mL): dissolved; result (whether peptide drug substance was dissolved) ([3]; 10 mM Citrate pH 5.0, 270 mM trehalose, final conc. 200 mg/mL): dissolved; result (whether peptide drug substance was dissolved) ([3]; 10 mM Citrate pH 6.0, 270 mM trehalose, final conc. 200 mg/mL): dissolved; result (whether peptide drug substance was dissolved) ([3]; 10 mM Phosphate pH 7.0, 270 mM trehalose, final conc. 200 mg/mL): dissolved; result (whether peptide drug substance was dissolved) ([3]; 10 mM Phosphate pH 7.5, 270 mM trehalose, final conc. 200 mg/mL): dissolved; result (whether peptide drug substance was dissolved) ([3]; 10 mM Phosphate pH 8.0, 270 mM trehalose, final conc. 200 mg/mL): dissolved |
| LLQAEAPRL [SEQ ID NO: 4] | SEQ ID NO: 4: 2.8 mg/mL | 3.0 | 106.4 | −1 | 10.47 | 1 | 10.68 | −4 | 10.16 | −1 | 10.47 | 10.61 | SEQ ID NO: 4: 101.2% | result (whether peptide drug substance was dissolved) ([3]; 10 mM Citrate pH 3.0, 270 mM trehalose, final conc. 20 mg/mL): dissolved; result (whether peptide drug substance was dissolved) ([3]; 10 mM Citrate pH 3.5, 270 mM trehalose, final conc. 20 mg/mL): dissolved; result (whether peptide drug substance was dissolved) ([3]; 10 mM Citrate pH 4.0, 270 mM trehalose, final conc. 28.6 mg/mL): dissolved; result (whether peptide drug substance was dissolved) ([3]; 10 mM Citrate pH 5.0, 270 mM trehalose, final conc. 20 mg/mL): dissolved; result (whether peptide drug substance was dissolved) ([3]; 10 mM Citrate pH 6.0, 270 mM trehalose, final conc. 28.6 mg/mL): dissolved; result (whether peptide drug substance was dissolved) ([3]; 10 mM Phosphate pH 7.0, 270 mM trehalose, final conc. 25 mg/mL): dissolved; result (whether peptide drug substance was dissolved) ([3]; 10 mM Phosphate pH 7.5, 270 mM trehalose, final conc. 25 mg/mL): dissolved; result (whether peptide drug substance was dissolved) ([3]; 10 mM Phosphate pH 8.0, 270 mM trehalose, final conc. 25 mg/mL): dissolved |
